Source: PMC1868780, “Short RNA Guides Cleavage by Eukaryotic RNase III”

Biological target: T1, Rnt1p (yeast RNase III) (Saccharomyces cerevisiae, UniProt Q02555 1-471)
T1 sequence: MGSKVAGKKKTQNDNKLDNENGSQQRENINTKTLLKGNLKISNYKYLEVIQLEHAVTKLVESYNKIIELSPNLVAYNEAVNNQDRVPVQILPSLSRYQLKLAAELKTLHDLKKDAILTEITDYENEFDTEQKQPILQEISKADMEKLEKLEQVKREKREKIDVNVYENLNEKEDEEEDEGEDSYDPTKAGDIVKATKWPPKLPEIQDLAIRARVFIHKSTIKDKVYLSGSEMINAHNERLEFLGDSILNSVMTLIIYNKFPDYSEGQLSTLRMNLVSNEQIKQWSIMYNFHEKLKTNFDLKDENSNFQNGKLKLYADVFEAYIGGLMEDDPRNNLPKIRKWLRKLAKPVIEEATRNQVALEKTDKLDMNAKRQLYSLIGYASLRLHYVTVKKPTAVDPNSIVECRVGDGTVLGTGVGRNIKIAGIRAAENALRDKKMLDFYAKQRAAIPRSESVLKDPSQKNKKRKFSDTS
Experiment: EMSA; apparent K'd; Protein EMSA as in cited ref 12 (buffer not given): 3 fmol 5'-labeled RNA, Rnt1p 0.25-6 uM; trans reactions with 2 pmol cold target
Conditions: protein: recombinant; chain copies: 2; label: 5'-32P; hairpin

B1: 3'-Branch (structured_RNA)
RNA: GCUUGAAGAGGAUGAGUCCAUCCCCAAAACAUUAGCUUGAAAAAGCUAAUGUUUUGGAAUCUUCAAGAUUAUGG
Work on B1 yielded a Kd of 0.75 µM.
